Legend:
Assay in all cases: cell_activity
Conditions in all cases: tags: 3xFlag, SV40 NLS; chain copies: 2
GFP1 Right TAL-PBx = biological target: T1, GFP1 Right TAL-PBx (synthetic construct)
T1 chain: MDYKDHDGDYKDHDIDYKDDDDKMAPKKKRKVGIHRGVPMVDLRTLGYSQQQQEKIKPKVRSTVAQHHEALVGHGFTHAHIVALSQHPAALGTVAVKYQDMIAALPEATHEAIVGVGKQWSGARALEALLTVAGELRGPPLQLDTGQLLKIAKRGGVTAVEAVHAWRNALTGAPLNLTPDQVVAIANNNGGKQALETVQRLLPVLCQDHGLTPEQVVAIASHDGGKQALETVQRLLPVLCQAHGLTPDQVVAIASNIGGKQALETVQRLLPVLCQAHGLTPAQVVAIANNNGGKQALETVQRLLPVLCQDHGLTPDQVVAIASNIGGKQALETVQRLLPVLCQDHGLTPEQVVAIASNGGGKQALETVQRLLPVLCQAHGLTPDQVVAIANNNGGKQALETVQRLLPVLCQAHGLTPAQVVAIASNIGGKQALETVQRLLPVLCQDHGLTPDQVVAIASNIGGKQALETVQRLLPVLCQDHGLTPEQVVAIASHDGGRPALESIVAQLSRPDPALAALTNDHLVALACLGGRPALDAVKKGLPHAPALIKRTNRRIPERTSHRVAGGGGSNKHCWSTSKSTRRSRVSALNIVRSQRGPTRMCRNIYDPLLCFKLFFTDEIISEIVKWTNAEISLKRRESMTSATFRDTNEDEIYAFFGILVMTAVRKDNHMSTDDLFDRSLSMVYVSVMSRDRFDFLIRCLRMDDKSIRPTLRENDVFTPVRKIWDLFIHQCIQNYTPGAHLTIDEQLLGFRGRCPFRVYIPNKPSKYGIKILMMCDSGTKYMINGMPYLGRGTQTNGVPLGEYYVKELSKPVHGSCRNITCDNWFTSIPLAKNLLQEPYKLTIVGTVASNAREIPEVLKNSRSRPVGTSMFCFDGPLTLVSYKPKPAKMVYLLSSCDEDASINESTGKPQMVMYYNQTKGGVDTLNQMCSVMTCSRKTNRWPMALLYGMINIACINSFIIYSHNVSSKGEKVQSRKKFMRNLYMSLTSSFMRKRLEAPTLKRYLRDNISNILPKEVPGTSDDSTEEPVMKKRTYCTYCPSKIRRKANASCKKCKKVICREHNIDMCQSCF

GFP1 Right NT-G TAL-PBx = biological target: T2, GFP1 Right NT-G TAL-PBx (synthetic construct)
T2 chain: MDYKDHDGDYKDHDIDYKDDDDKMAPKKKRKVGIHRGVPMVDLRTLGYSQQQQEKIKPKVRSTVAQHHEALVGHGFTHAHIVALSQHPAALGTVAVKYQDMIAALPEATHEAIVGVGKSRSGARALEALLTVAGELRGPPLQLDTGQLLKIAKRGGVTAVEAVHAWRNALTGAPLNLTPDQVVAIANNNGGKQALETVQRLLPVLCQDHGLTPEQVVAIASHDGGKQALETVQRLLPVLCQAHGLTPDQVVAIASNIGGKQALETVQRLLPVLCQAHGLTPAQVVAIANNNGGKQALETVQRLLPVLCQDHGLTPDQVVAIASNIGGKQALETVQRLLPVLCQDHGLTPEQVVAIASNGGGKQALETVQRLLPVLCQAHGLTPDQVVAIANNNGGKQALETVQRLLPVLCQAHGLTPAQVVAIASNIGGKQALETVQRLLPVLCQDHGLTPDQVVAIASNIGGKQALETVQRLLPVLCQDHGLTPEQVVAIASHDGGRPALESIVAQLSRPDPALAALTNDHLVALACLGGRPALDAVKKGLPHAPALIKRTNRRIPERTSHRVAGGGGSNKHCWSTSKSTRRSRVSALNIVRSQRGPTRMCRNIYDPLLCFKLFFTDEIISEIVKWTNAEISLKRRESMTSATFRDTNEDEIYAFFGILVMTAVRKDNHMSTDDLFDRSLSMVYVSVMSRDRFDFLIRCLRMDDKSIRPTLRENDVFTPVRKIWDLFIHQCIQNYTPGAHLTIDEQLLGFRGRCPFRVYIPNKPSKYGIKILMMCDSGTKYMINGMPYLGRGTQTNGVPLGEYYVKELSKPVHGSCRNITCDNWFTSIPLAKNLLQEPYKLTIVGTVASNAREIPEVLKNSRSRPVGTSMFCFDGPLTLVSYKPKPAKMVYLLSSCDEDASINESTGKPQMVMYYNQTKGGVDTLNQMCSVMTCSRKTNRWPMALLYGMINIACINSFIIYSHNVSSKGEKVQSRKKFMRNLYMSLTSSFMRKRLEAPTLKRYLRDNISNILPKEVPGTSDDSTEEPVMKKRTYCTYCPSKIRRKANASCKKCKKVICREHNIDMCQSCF

[1] = biological target: T3, GFP1 Right NT-betaN TAL-PBx (synthetic construct)
T3 chain: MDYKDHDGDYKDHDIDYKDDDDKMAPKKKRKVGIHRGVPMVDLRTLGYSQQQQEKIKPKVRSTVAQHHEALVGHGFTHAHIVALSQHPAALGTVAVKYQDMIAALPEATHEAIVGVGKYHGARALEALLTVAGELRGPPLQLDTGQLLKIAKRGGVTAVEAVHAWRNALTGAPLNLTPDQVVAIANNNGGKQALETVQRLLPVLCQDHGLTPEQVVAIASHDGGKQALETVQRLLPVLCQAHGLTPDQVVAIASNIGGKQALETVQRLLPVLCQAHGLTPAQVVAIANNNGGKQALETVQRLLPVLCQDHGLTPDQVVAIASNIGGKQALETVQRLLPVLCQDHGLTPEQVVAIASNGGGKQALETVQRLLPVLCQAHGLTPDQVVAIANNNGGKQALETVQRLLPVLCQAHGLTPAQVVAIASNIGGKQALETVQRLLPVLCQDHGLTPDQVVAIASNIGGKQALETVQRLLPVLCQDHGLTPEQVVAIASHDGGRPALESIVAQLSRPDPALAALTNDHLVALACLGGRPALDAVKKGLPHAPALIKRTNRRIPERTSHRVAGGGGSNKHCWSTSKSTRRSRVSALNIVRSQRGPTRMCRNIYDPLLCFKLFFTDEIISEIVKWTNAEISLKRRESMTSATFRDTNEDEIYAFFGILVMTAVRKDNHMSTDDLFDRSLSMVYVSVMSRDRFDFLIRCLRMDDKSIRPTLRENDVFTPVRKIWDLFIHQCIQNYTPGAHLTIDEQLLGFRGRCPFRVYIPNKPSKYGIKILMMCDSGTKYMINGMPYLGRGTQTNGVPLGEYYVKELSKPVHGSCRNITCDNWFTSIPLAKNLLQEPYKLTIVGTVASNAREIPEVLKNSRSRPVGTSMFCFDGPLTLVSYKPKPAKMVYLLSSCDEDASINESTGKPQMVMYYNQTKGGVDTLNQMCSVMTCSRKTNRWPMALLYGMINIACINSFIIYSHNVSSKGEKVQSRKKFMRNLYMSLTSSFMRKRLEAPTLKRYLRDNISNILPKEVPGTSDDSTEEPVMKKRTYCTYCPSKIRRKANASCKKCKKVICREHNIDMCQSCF

B1: GFP1R 13 bp 5'A (dsDNA)
DNA 1: AGCAGATGAACGCAATCTCACGGCTTAACTACTGACCTGAAGTTCATCTGCT
DNA 2: AGCAGATGAACTTCAGGTCAGTAGTTAAGCCGTGAGATTGCGTTCATCTGCT
GFP1 Right TAL-PBx
  activity: 11.3 % GFP+
GFP1 Right NT-G TAL-PBx
  activity: 21.5 % GFP+
[1]
  activity: 23.7 % GFP+

B2: GFP1R 13 bp 5'C (dsDNA)
DNA 1: CGCAGATGAACGCAATCTCACGGCTTAACTACTGACCTGAAGTTCATCTGCG
DNA 2: CGCAGATGAACTTCAGGTCAGTAGTTAAGCCGTGAGATTGCGTTCATCTGCG
GFP1 Right TAL-PBx
  activity: 11.5 % GFP+
GFP1 Right NT-G TAL-PBx
  activity: 18.5 % GFP+
[1]
  activity: 22.3 % GFP+
